Results published in patent US20030013150.

Target: plasminogen
Sequence (P00747 20-810): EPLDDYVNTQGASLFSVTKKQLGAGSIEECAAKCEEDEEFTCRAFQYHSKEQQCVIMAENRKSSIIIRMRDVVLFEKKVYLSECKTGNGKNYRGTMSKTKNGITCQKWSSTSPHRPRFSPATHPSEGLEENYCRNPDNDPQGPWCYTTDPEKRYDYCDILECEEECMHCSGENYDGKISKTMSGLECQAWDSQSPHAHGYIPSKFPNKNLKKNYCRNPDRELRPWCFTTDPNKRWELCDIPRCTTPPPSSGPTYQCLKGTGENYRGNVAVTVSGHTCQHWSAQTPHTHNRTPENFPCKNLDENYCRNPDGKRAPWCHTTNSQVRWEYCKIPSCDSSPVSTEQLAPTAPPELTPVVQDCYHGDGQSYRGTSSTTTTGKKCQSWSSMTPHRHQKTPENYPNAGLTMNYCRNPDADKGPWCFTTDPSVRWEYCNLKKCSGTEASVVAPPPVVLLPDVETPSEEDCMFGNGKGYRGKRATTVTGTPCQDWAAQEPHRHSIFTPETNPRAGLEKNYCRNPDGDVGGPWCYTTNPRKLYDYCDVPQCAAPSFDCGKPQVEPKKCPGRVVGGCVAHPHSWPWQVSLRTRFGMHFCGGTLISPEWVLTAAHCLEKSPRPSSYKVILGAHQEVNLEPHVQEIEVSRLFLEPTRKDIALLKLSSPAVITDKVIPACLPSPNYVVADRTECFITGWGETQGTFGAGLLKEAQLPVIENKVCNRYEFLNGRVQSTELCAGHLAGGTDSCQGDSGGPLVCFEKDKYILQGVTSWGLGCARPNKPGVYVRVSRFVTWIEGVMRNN

B1: recombinant-K2S (r-K2S) expressed in non-gpIII fusion form in E. coli XM[K2S] (protein)
chain: SEGNSDCYFGNGSAYRGTHSLTESGASCLPWNSMILIGKVYTAQNPSAQALGLGKHNYCRNPDGDAKPWCHVLKNRRLTWEYCDVPSCSTCGLRQYSQPQFRIKGGLFADIASHPWQAAIFAKHRRSPGERFLCGGILISSCWILSAAHCFQERFPPHHLTVILGRTYRVVPGEEEQKFEVEKYIVHKEFDDDTYDNDIALLQLKSDSSRCAQESSVVRTVCLPPADLQLPDWTECELSGYGKHEALSPFYSERLKEAHVRLYPSSRCTSQHLLNRTVTDNMLCAGDTRSGGPQANLHDACQGDSGGPLVCLNDGRMTLVGIISWGLGCGQKDVPGVYTKVTNYLDWIRDNMRP
  copolymerized plasminogen polyacrylamide gel electrophoresis (clearing zones): Transparent areas of serine protease digested plasminogen were observed only in the ammonium sulfate precipitated culture supernatants of E. coli XM[K2S] at 34 and 37 kDa postions
  fibrinogen-dependent enzymatic activity (amidolytic assay, plasminogen and S-2251): The culture supernatant r-K2S gave the fibrinogen-dependent enzymatic activity of 7 IU/ml
  fibrinogen-dependent enzymatic activity of the periplasmic r-K2S preparation (amidolytic assay, plasminogen and S-2251): notably low enzymatic activity, which was below the sensitivity of the test (0.25 IU/ml)

B2: standard melanoma tPA 86/670 (protein)
chain: SYQVICRDEKTQMIYQQHQSWLRPVLRSNRVEYCWCNSGRAQCHSVPVKSCSEPRCFNGGTCQQALYFSDFVCQCPEGFAGKCCEIDTRATCYEDQGISYRGTWSTAESGAECTNWNSSALAQKPYSGRRPDAIRLGLGNHNYCRNPDRDSKPWCYVFKAGKYSSEFCSTPACSEGNSDCYFGNGSAYRGTHSLTESGASCLPWNSMILIGKVYTAQNPSAQALGLGKHNYCRNPDGDAKPWCHVLKNRRLTWEYCDVPSCSTCGLRQYSQPQFRIKGGLFADIASHPWQAAIFAKHRRSPGERFLCGGILISSCWILSAAHCFQERFPPHHLTVILGRTYRVVPGEEEQKFEVEKYIVHKEFDDDTYDNDIALLQLKSDSSRCAQESSVVRTVCLPPADLQLPDWTECELSGYGKHEALSPFYSERLKEAHVRLYPSSRCTSQHLLNRTVTDNMLCAGDTRSGGPQANLHDACQGDSGGPLVCLNDGRMTLVGIISWGLGCGQKDVPGVYTKVTNYLDWIRDNMRP
  copolymerized plasminogen polyacrylamide gel electrophoresis (clearing zones): The positive control lane of standard melanoma tPA also demonstrated enzymatic activity at 66 and 72 kDa positions
